Results: the Immune Epitope Database (IEDB)

target: HLA-A*01:01; experiment: IEDB peptide-MHC binding, purified MHC/competitive/radioactivity; ≥ and ≤ were set here for values at or beyond the usual limits of such assays; conditions: source organism: Clostridium botulinum

Sequence | IC50 [µM]
CSNDKSLVY | 0.115
FLDQWWTEY | 0.0011
FVEDPNGKY | 0.677
IIEDQYNRY | 0.179
ISDESYRVY | 0.183
LTYKYNQFY | 0.012
TSIPFLHEY | 0.618
TSPYELSLY | 0.255

same assay, conditions: source organism: Clostridium perfringens

Sequence | IC50 [µM]
STTAGPNEY | 0.785

same assay, conditions: source organism: Hepacivirus hominis

Sequence | IC50 [µM]
LTPRCMVDY | 0.538
VQDCNCSIY | 0.078

same assay, conditions: source organism: Hepatitis B virus adw/Okinawa/PODW282

Sequence | IC50 [µM]
LTKQYLNLY | 0.084
PTTGRTSLY | 0.054

same assay, conditions: source organism: Homo sapiens

IC50 [µM] | Sequence
0.984 | ETLEEITGY
0.237 | GTQLFEDNY
0.02 | TQDLVQEKY
0.0015 | YTAVVPLVY

same assay, conditions: source organism: Mycobacterium tuberculosis

Sequence | IC50 [µM]
HTEFEGQVY | 0.0068
RSARASSRY | 0.622
VAEGDTVIY | 0.84

same assay, conditions: source organism: Neisseria gonorrhoeae

Sequence | IC50 [µM]
ASADKPYSY | 0.28
GTATYLPPY | 0.12
HSAEALQKY | 0.398
KAEVHTFYY | 0.233
LSGNGHFHY | 0.125
LTAGLDFAY | 0.026
LTEIDIRDY | 0.065
NTFVQANLY | 0.492

target: HLA-A*01:01; experiment: IEDB peptide-MHC binding, purified MHC/competitive/radioactivity; filed as Kd, often an IC50 or EC50 that approximates it; ≥ and ≤ were set here for values at or beyond the usual limits of such assays; conditions: source organism: Clostridium botulinum

Sequence | Kd [µM]
DMIVDAIPY | ≥ 50
GMQNIYIKY | 2.47
ITYFKKIYY | 2.33
KSKSIFFEY | 7.06
LHEYKQGDY | ≥ 50
RNEFSNVEY | ≥ 50

same assay, conditions: source organism: Clostridium perfringens

Sequence | Kd [µM]
LGDGVKDHY | 11.6

same assay, conditions: source organism: Hepacivirus hominis

Sequence | Kd [µM]
FTIFKIRMY | 3.5

same assay, conditions: source organism: Hepatitis B virus adw/Okinawa/PODW282

Sequence | Kd [µM]
PLDKGIKPY | 2.21

same assay, conditions: source organism: Hepatitis C virus (isolate Japanese)

Sequence | Kd [µM]
PGDPPQPEY | ≥ 50

same assay, conditions: source organism: Human immunodeficiency virus type 1 (NEW YORK-5 ISOLATE)

Sequence | Kd [µM]
ETKLGKAGY | ≥ 42
ETPGIRYQY | 2.15

same assay, conditions: source organism: Human papillomavirus 16

Sequence | Kd [µM]
FEDPTRRPY | ≥ 50
VCDKCLKFY | ≥ 50

same assay, conditions: source organism: Influenza A virus (A/Texas/1/1977(H3N2))

Sequence | Kd [µM]
AFDERRNKY | ≥ 50

same assay, conditions: source organism: Mycobacterium tuberculosis

Sequence | Kd [µM]
SSLGLPVSY | 9.65
VTPEQRPLY | 2.71

same assay, conditions: source organism: Neisseria gonorrhoeae

Sequence | Kd [µM]
DPEMADVTY | ≥ 50
EKEVVPDFY | ≥ 50
FDEKNQDKY | ≥ 50
GKDLYYKNY | ≥ 50
GTYDYWAGY | 1.18
IRDMTEKQY | ≥ 50
KSWQEWNIY | 17.9
KTQNGKKQY | ≥ 50
LSQDALTNY | 2.06
QNDYDEDDY | 14
QRESTAMAY | ≥ 50
RPDLSLRSY | ≥ 50
RSYNLKLSY | 6.22
TTRPGLAGY | ≥ 35
VREFPEDQY | ≥ 50
YDEDDYSYY | ≥ 50
